Results published in article PMC10523585 (Molecular cell, 2023).

Columns and labels:
Test in all cases: cryo-EM structure
[1] = biological target: Rpt1 (ATPase subunit of the human 26S proteasome) (human, UniProt P35998 1-433)
[2] = biological target: Rpn1 (non-ATPase, ubiquitin-binding subunit of the human 26S proteasome) (human, UniProt Q13200 1-908)
[3] = biological target: Rpt5 (ATPase subunit of the human 26S proteasome) (human, UniProt P17980 1-439)
[4] = biological target: T1, α7 (CP subunit of the human 26S proteasome) (human, UniProt P25788 2-255)
T1 sequence: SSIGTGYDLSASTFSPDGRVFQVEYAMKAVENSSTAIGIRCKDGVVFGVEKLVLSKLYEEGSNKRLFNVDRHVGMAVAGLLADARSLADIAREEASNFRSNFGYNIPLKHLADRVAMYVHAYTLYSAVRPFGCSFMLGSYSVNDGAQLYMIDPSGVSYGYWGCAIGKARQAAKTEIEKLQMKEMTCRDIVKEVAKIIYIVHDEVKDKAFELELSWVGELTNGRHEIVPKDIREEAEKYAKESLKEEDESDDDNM

Measured: binding result

Rpt1 (ATPase subunit of the human 26S proteasome), sequence (P35998 whole entry): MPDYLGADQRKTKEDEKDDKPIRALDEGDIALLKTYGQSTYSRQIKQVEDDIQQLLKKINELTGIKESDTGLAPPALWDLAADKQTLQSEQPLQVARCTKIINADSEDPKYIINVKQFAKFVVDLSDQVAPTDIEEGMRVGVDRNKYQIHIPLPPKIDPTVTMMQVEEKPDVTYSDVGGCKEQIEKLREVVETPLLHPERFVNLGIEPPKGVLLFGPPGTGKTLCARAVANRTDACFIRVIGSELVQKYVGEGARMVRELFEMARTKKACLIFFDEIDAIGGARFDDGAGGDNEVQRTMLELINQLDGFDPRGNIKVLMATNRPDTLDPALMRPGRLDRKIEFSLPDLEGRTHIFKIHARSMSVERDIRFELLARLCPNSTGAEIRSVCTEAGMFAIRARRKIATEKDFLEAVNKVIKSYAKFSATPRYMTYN
Rpn1 (non-ATPase, ubiquitin-binding subunit of the human 26S proteasome), sequence (Q13200 whole entry): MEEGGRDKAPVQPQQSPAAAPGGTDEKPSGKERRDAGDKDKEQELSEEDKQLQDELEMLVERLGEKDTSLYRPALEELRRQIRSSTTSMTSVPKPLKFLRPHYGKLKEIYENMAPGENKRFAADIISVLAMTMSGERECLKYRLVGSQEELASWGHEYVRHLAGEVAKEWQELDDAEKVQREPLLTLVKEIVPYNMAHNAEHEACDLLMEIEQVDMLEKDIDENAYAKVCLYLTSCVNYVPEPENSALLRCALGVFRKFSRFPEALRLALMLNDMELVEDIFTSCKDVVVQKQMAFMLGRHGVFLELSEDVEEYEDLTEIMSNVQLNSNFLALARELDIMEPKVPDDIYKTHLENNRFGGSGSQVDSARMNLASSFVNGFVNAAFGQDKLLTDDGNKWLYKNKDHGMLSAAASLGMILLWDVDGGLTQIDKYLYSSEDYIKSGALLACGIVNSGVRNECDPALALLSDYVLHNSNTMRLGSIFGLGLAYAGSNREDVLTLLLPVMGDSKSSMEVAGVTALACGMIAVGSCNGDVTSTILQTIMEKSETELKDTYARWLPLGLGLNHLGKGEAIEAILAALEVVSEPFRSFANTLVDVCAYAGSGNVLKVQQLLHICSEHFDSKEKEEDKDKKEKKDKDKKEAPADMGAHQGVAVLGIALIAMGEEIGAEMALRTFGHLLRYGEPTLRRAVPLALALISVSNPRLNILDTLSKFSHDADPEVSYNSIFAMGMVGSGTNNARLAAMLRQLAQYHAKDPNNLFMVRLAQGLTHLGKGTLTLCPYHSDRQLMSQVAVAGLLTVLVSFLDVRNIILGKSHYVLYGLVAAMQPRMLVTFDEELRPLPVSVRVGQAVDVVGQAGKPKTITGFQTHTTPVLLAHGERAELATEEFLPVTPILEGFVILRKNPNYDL
Rpt5 (ATPase subunit of the human 26S proteasome), sequence (P17980 whole entry): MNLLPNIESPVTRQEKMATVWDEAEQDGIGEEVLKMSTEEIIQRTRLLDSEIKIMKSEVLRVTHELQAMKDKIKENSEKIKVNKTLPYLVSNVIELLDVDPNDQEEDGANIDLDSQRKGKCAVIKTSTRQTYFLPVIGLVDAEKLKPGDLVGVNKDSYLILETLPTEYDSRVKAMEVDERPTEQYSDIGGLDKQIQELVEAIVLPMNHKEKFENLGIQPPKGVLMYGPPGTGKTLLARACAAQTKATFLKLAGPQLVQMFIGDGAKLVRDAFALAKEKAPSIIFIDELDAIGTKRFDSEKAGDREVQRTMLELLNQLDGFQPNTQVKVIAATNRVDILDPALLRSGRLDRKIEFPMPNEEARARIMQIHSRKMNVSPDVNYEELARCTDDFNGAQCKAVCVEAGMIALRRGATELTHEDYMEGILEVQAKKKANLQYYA

B1: ZFAND5 (recombinant mouse ZFAND5, wild type) (natural protein, UniProt O88878 1-213, looked up)
chain: MAQETNQTPGPMLCSTGCGFYGNPRTNGMCSVCYKEHLQRQQNSGRMSPMGTASGSNSPTSDSASVQRADAGLNNCEGAAGSTSEKSRNVPVAALPVTQQMTEMSISREDKITTPKTEVSEPVVTQPSPSVSQPSSSQSEEKAPELPKPKKNRCFMCRKKVGLTGFDCRCGNLFCGLHRYSDKHNCPYDYKAEAAAKIRKENPVVVAEKIQRI
binds: [1] | [2] | [3] | [4]
